Substitutions are numbered along the chain they refer to. In names and notes the source's numbering stands. Values belong to the binder of their own block, whether it stands above or below them.
Columns and labels:
[1] = biological target: T1, CADM1, endogenous in H929 multiple myeloma cells (human, UniProt Q9BY67 45-442); test: IP from H929 cell lysate, LC-MS/MS, heatmap
T1 construct: Native protein on H929 cells (flow cytometry, siRNA knockdown) and in H929 lysates (IP/MS); also called IGSF4A
T1 sequence: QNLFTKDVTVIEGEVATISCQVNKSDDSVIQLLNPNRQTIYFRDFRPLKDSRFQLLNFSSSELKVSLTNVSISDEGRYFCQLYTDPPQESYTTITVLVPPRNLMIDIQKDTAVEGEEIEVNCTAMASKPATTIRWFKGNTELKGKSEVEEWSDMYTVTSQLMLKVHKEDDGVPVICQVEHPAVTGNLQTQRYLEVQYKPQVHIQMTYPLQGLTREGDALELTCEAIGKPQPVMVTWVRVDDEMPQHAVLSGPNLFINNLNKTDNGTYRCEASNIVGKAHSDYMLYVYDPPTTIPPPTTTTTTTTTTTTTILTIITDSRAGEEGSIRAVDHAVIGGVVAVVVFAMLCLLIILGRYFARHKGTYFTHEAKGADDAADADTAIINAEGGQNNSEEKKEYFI
Protocol: (§1) Immunoprecipitation. […] After 30 min of rocking at 4° C., and lysates were centrifuged at 18,400×g for 20 min at 4° C. Subsequently, 1-mL aliquots of the supernatants were pre-cleared twice with Protein G agarose (Thermo Fisher Scientific) by adding 50 μL of 50% resin slurry and incubating 30 min with end-over-end tumbling at 4° C., followed by centrifugation at 16,000×g for 5 min and pooling of the pre-cleared cell lysate aliquots. Representative mAbs from each cluster were immobilized on Protein G agarose at a ratio of 25 μg IgG1 per 30 μL of 50% slurry, diluted to 500 μL with Dulbecco's PBS (DPBS) and incubated for 1 h at 4° C. with tumbling, followed by centrifugation at 5,000×g for 30 s and 2 washes with lysis buffer. After the last wash, the ˜15 μL of IgG1-coated resin was blocked with 10 μL of 10% BSA (MilliporeSigma). Next, 1 mL of the pooled pre-cleared cell lysate was added to the IgG1-coated resin and incubated for 3 h at 4° C. with tumbling. The immune complexes were pelleted by centrifugation at 2,500×g at 4° C. for 30 s, and gently resuspended to wash for 3 min in 1 mL of lysis buffer, which was repeated once with lysis buffer and twice with an identical wash buffer lacking Triton X-100. Finally, the immune complexes were eluted from the resin with three batch-wise steps using 30 μL of elution buffer (6 or 8 M urea (MilliporeSigma), 20 mM Tris-HCl pH 7.5, and 100 mM NaCl) and incubating 15 min at RT with 450 rpm orbital agitation. Finally, 16 μL of the eluate (˜20%) was analyzed on a reducing SDS-PAGE gel stained with SYPRO Ruby dye (Bio-Rad Laboratories), while the rest was stored at −80° C. prior to LC-MS/MS analysis.
Protein elutions in 6 or 8 M urea were reduced with 15 mM dithiothreitol at 56° C. for 30 min followed by alkylation with 30 mM iodoacetamide in the dark at RT. The elutions were then diluted to 1 M urea with 50 mM ammonium bicarbonate pH 7.8 and digested overnight at 37° C. following the addition of 4 μg trypsin (Promega).

[2] = biological target: T2, GARS, endogenous in H929 multiple myeloma cells (human, UniProt P41250 37-739, limits assumed); test: IP from H929 cell lysate, LC-MS/MS, spectral counts
T2 construct: Native protein pulled down from H929 lysates; also called Glycyl-tRNA synthetase; GlyRS
T2 sequence: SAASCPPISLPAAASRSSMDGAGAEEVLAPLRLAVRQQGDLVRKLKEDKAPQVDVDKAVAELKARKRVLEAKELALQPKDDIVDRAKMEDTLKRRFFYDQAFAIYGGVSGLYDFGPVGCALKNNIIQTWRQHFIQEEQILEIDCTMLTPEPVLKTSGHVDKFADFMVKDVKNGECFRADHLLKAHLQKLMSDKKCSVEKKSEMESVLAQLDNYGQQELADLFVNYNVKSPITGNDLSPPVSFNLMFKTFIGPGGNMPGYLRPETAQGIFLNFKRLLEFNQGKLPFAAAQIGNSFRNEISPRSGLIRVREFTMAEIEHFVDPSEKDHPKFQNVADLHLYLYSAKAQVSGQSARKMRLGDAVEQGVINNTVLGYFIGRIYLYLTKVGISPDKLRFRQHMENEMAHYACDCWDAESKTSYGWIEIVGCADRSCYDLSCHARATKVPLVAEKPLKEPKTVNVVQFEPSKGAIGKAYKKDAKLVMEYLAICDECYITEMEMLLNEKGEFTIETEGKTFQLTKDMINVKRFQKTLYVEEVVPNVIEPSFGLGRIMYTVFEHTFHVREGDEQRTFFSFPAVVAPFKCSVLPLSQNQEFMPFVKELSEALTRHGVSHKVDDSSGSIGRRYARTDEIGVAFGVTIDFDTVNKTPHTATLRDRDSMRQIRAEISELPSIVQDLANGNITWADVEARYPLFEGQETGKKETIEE
Protocol: as §1, with “The immune complexes were pelleted by centrifugation at 2,500×g at 4° C. for 30 s, and gently resuspended to wash for 3 min in 1 mL of lysis buffer, which was repeated once with lysis buffer and twice with an identical wash buffer lacking Triton X-100. Finally, the immune complexes were eluted from the resin with three batch-wise steps using 30 μL of elution buffer (6 or 8 M urea (MilliporeSigma), 20 mM Tris-HCl pH 7.5, and 100 mM NaCl) and incubating 15 min at RT with 450 rpm orbital agitation.” left out, “analysis. […]” for “analysis.”

[3] = biological target: T3, ICAM1, endogenous in H929 multiple myeloma cells (human, UniProt P05362 28-532); test: flow cytometry, H929 + NT Green siRNA; None 1.35
T3 construct: Native protein on H929 cells (flow cytometry, siRNA knockdown) and in H929 lysates (IP/MS); also called CD54
T3 sequence (P05362 28-532 limits assumed): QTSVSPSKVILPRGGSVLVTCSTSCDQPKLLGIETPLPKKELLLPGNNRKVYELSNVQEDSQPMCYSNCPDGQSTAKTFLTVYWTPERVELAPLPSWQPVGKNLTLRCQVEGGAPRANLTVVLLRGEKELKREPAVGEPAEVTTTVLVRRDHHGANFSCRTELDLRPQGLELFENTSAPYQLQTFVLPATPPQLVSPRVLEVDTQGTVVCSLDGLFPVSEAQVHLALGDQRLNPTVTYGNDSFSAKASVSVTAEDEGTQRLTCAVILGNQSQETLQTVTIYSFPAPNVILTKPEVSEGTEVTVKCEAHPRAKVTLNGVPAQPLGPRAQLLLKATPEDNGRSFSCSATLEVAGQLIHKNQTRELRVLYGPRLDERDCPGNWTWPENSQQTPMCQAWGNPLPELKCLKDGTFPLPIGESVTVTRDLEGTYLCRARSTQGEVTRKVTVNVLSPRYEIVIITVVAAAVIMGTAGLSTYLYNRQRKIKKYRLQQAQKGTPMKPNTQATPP

[4] = biological target: T3, ICAM1, endogenous in H929 multiple …; test: flow cytometry, H929 + NT Green siRNA; None 416
[5] = biological target: T3, ICAM1, endogenous in H929 multiple …; test: flow cytometry, H929 + vehicle; None 513
[6] = biological target: T1, CADM1, endogenous in H929 multiple …; test: flow cytometry, H929 + ICAM1 siRNA; None 1.06
[7] = biological target: T1, CADM1, endogenous in H929 multiple …; test: flow cytometry, H929 + ICAM1 siRNA; None 455

B1: HW-1 chimeric rabbit-human IgG1 LA/LA/PG (antibody, V domains shown)
VH: QSLEESGGGLFKPTDTLTLTCTASGFSLGSSYAISWVRQAPGKELEWIGTIDSGRAYYARWAKSRSTITRNTNENTVTLKMTSLTAADTATYFCARDLIPTYSQDIWGPGTLVTISS
VL: SFVLTQPASVQVNLGQTVSLTCTADTLSRRYASWYQQKPGQAPVLLIYRDTSRPSGVPDRFSGSSSGNTATLTISGAQAGDEADYYCATSDGSGNSYQYVFGGGTQLTVTS
notes: Fc-silenced (L234A/L235A/P329G) IgG1, lambda; Alexa Fluor 647-labeled in single-step flow cytometry; Prototype of cluster C-1
binding result [1]: no binding

B4: HW-97 chimeric rabbit-human IgG1 LA/LA/PG (antibody, V domains shown)
VH: QKQLVESGGRLVTPGTPLTLTCTVTGIDLSSHGMSWVRQAPGKGLEWIGVIYPSGSTWYASWARGRFTISKTSTTVDLKMTSLTTEDTATHFCARGDVGGADNNIWGPGTLVTVSS
VL: B1 VL with N13D, D25E, R30S, N95S, S111G
notes: Fc-silenced (L234A/L235A/P329G) IgG1, lambda; Alexa Fluor 647-labeled in single-step flow cytometry; Prototype of cluster C-97
Cells stained (%) [6]: 97.1% | mAb binding (MFI) [7]: 9430

B6: TH9-0022 (antibody, human IgG1, kappa, L234A L235A, V domains shown)
VH: QSLEESGGRLVTPGTPLTLTCTVSGFSLSSYAMNWVRQAPGKGLEWIGIINSYGSTYYASWAKGRFTISKTSTTVDLKITSPTTEDTATYFCARVTYDSYGYGYAPYGMDLWGPGTLVTVSS
VL: LVMTQTPSSTSNAVGGTVTIKCQASQSIGNVLAWYQQKPGQPPKLLIYAASTLASGVPSRVGGSRSGTEYTLTISGVQREDAATYYCLGSDSDSDIAFGGGTELEILR
notes: also called TH9-022; negative control
Cells stained (%) [3]: 1.86% | mAb binding (MFI) [4]: 483 | mAb binding (MFI) [5]: 595

Further lines, results first:

binding result [1]: no binding
B2: HW-45 chimeric rabbit-human IgG1 LA/LA/PG (antibody, V domains shown)
VH: QKQLVESGGRLVTPGTPLTLTCTVSGFSLSSYAMGWFRQAPGKGLEWIGIINSYGSTYYASWAKGRFTISKTSTTVDLKITSPTTEDTATYFCGRRIGSARFDPWGPGTLVTVSS
VL: B1 VL with R30S, S52R, N95S, Q98R, Y99L, S111G
notes: Fc-silenced (L234A/L235A/P329G) IgG1, lambda; Alexa Fluor 647-labeled in single-step flow cytometry; Prototype of cluster C-45

binding result [1]: no binding | binding result [2]: no binding | Cells stained (%) [3]: 99.8% | mAb binding (MFI) [4]: 51900 | mAb binding (MFI) [5]: 49100
B3: HW-113 chimeric rabbit-human IgG1 LA/LA/PG (antibody, V domains shown)
VH: QKQLVESGGGLVQPGGSLTLTCTVSGFSLNKYYMGWFRQAPGKGLEWIGVISRSGDTYYSSWAKGRFTISKASTTVDLRITSPTTEDTATYFCARDASSPGFHGDRLDLWGQGTLVTVSS
VL: B1 VL with R30S, S93I, N95S, S96N, Q98L, Y99W, S111G
notes: Fc-silenced (L234A/L235A/P329G) IgG1, lambda; Alexa Fluor 647-labeled in single-step flow cytometry

binding result [2]: no binding | Cells stained (%) [6]: 93.8% | mAb binding (MFI) [7]: 6390
B5: HW-101 chimeric rabbit-human IgG1 LA/LA/PG (antibody, V domains shown)
VH: QEQLVESGGRLVTPGTPLTLTCKASGFSLGKYDMSWVRQAPGKGLEWIGTIYAGSGSTWYASWAKGRFTISKTSTTVDLKMTSLTTEDTATYFCARDFLGVNSIWGPGTLVTISS
VL: B1 VL with R30S, G40D, Y48H, S65N, N95S, S96N, Y97F, Q98H, Y99F, S111G
notes: Fc-silenced (L234A/L235A/P329G) IgG1, lambda; Alexa Fluor 647-labeled in single-step flow cytometry; Cluster C-97

binding result [1]: no binding
B7: TH9-0022 (antibody, human IgG1, kappa, L234A L235A, V domains shown)
VH: B6 VH
VL: B6 VL
notes: also called TH9-022; negative control IgG1
